Laboratory results as given in patent US20260139033A1 (PRANA THERAPIES, published 2026).

B1: Candidate-23: Dupilumab-YTE_Linker-GS4_TSLP TRAP 1 (bispecific antibody, human IgG4 S228P, kappa)
heavy: EVQLVESGGGLEQPGGSLRLSCAGSGFTFRDYAMTWVRQAPGKGLEWVSSISGSGGNTYYADSVKGRFTISRDNSKNTLYLQMNSLRAEDTAVYYCAKDRLSITIRPRYYGLDVWGQGTTVTVSSASTKGPSVFPLAPCSRSTSESTAALGCLVKDYFPEPVTVSWNSGALTSGVHTFPAVLQSSGLYSLSSVVTVPSSSLGTKTYTCNVDHKPSNTKVDKRVESKYGPPCPPCPAPEFLGGPSVFLFPPKPKDTLYITREPEVTCVVVDVSQEDPEVQFNWYVDGVEVHNAKTKPREEQFNSTYRVVSVLTVLHQDWLNGKEYKCKVSNKGLPSSIEKTISKAKGQPREPQVYTLPPSQEEMTKNQVSLTCLVKGFYPSDIAVEWESNGQPENNYKTTPPVLDSDGSFFLYSRLTVDKSRWQEGNVFSCSVMHEALHNHYTQKSLSLSLGGGGGSGGGGSGGGGSGGGGSGAAEGVQIQIIYFNLETVQVTWNASKYSRTNLTFHYRFNGDEAYDQCTNYLLQEGHTSGCLLDAEQRDDILYFSIRNGTHPVFTASRWMVYYLKPSSPKHVRFSWHQDAVTVTCSDLSYGDLLYEVQYRSPFDTEWQSKQENTCNVTIEGLDAEKCYSFWVRVKAMEDVYGPDTYPSDWSEVTCWQRGEIRDACAETPTPPKPKLSKGGSGGSGGSGGSGGSGGSGGSGGSGGSGGSGGSGGSGGSGGSGGSGGSGGSGGSGGSGGSESGYAQNGDLEDAELDDYSFSCYSQLEVNGSQHSLTCAFEDPDVNITNLEFEICGALVEVKCLNFRKLQEIYFIETKKFLLIGKSNICVKVGEKSLTCKKIDLTTIVKPEAPFDLSVVYREGANDFVVTFNTSHLQKKYVKVLMHDVAYRQEKDENKWTHVNLSSTKLTLLQRKLQPAAMYEIKVRSIPDHYFKGFWSEWSPSYYFRTPEINNSSGEMD
light: DIVMTQSPLSLPVTPGEPASISCRSSQSLLYSIGYNYLDWYLQKSGQSPQLLIYLGSNRASGVPDRFSGSGSGTDFTLKISRVEAEDVGFYYCMQALQTPYTFGQGTKLEIKRTVAAPSVFIFPPSDEQLKSGTASVVCLLNNFYPREAKVQWKVDNALQSGNSQESVTEQDSKDSTYSLSSTLTLSKADYEKHKVYACEVTHQGLSSPVTKSFNRGEC
notes: The chains here are built from the component entries; TRAP sits at the C-terminus of the heavy chain
B2: Candidate-24: Dupilumab-YTE_Linker-GS4_TSLP TRAP 2 (bispecific antibody, human IgG4 S228P, kappa)
heavy: EVQLVESGGGLEQPGGSLRLSCAGSGFTFRDYAMTWVRQAPGKGLEWVSSISGSGGNTYYADSVKGRFTISRDNSKNTLYLQMNSLRAEDTAVYYCAKDRLSITIRPRYYGLDVWGQGTTVTVSSASTKGPSVFPLAPCSRSTSESTAALGCLVKDYFPEPVTVSWNSGALTSGVHTFPAVLQSSGLYSLSSVVTVPSSSLGTKTYTCNVDHKPSNTKVDKRVESKYGPPCPPCPAPEFLGGPSVFLFPPKPKDTLYITREPEVTCVVVDVSQEDPEVQFNWYVDGVEVHNAKTKPREEQFNSTYRVVSVLTVLHQDWLNGKEYKCKVSNKGLPSSIEKTISKAKGQPREPQVYTLPPSQEEMTKNQVSLTCLVKGFYPSDIAVEWESNGQPENNYKTTPPVLDSDGSFFLYSRLTVDKSRWQEGNVFSCSVMHEALHNHYTQKSLSLSLGGGGGSGGGGSGGGGSGGGGSESGYAQNGDLEDAELDDYSFSCYSQLEVNGSQHSLTCAFEDPDVNITNLEFEICGALVEVKCLNFRKLQEIYFIETKKFLLIGKSNICVKVGEKSLTCKKIDLTTIVKPEAPFDLSVVYREGANDFVVTFNTSHLQKKYVKVLMHDVAYRQEKDENKWTHVNLSSTKLTLLQRKLQPAAMYEIKVRSIPDHYFKGFWSEWSPSYYFRTPEINNSSGEMDGGSGGSGGSGGSGGSGGSGGSGGSGGSGGSGGSGGSGGSGGSGGSGGSGGSGGSGGSGGSGAAEGVQIQIIYFNLETVQVTWNASKYSRTNLTFHYRFNGDEAYDQCTNYLLQEGHTSGCLLDAEQRDDILYFSIRNGTHPVFTASRWMVYYLKPSSPKHVRFSWHQDAVTVTCSDLSYGDLLYEVQYRSPFDTEWQSKQENTCNVTIEGLDAEKCYSFWVRVKAMEDVYGPDTYPSDWSEVTCWQRGEIRDACAETPTPPKPKLSK
light: B1 light
notes: as for B1
B3: Candidate-25 (TRAP-2) (bispecific antibody, human IgG4 S228P, kappa)
heavy chain: EVQLVESGGGLEQPGGSLRLSCAGSGFTFRDYAMTWVRQAPGKGLEWVSSISGSGGNTYYADSVKGRFTISRDNSKNTLYLQMNSLRAEDTAVYYCAKDRLSITIRPRYYGLDVWGQGTTVTVSSASTKGPSVFPLAPCSRSTSESTAALGCLVKDYFPEPVTVSWNSGALTSGVHTFPAVLQSSGLYSLSSVVTVPSSSLGTKTYTCNVDHKPSNTKVDKRVESKYGPPCPPCPAPEFLGGPSVFLFPPKPKDTLYITREPEVTCVVVDVSQEDPEVQFNWYVDGVEVHNAKTKPREEQFNSTYRVVSVLTVLHQDWLNGKEYKCKVSNKGLPSSIEKTISKAKGQPREPQVYTLPPSQEEMTKNQVSLTCLVKGFYPSDIAVEWESNGQPENNYKTTPPVLDSDGSFFLYSRLTVDKSRWQEGNVFSCSVMHEALHNHYTQKSLSLSLG
light chain with N-terminal TSLP TRAP 2 (TSLP-TRAP, first linker, dupilumab-YTE light chain): ESGYAQNGDLEDAELDDYSFSCYSQLEVNGSQHSLTCAFEDPDVNITNLEFEICGALVEVKCLNFRKLQEIYFIETKKFLLIGKSNICVKVGEKSLTCKKIDLTTIVKPEAPFDLSVVYREGANDFVVTFNTSHLQKKYVKVLMHDVAYRQEKDENKWTHVNLSSTKLTLLQRKLQPAAMYEIKVRSIPDHYFKGFWSEWSPSYYFRTPEINNSSGEMDGGSGGSGGSGGSGGSGGSGGSGGSGGSGGSGGSGGSGGSGGSGGSGGSGGSGGSGGSGGSGAAEGVQIQIIYFNLETVQVTWNASKYSRTNLTFHYRFNGDEAYDQCTNYLLQEGHTSGCLLDAEQRDDILYFSIRNGTHPVFTASRWMVYYLKPSSPKHVRFSWHQDAVTVTCSDLSYGDLLYEVQYRSPFDTEWQSKQENTCNVTIEGLDAEKCYSFWVRVKAMEDVYGPDTYPSDWSEVTCWQRGEIRDACAETPTPPKPKLSKGGGGSGGGGSGGGGSGGGGSDIVMTQSPLSLPVTPGEPASISCRSSQSLLYSIGYNYLDWYLQKSGQSPQLLIYLGSNRASGVPDRFSGSGSGTDFTLKISRVEAEDVGFYYCMQALQTPYTFGQGTKLEIKRTVAAPSVFIFPPSDEQLKSGTASVVCLLNNFYPREAKVQWKVDNALQSGNSQESVTEQDSKDSTYSLSSTLTLSKADYEKHKVYACEVTHQGLSSPVTKSFNRGEC
notes: also called Light chain N-terminal TRAP: TSLP TRAP 2_Linker-GS4_Dupilumab-YTE [2 x TRAP 2]
B4: dupilumab (antibody, V domains shown)
VH: EVQLVESGGGLEQPGGSLRLSCAGSGFTFRDYAMTWVRQAPGKGLEWVSSISGSGGNTYYADSVKGRFTISRDNSKNTLYLQMNSLRAEDTAVYYCAKDRLSITIRPRYYGLDVWGQGTTVTVS
VL: DIVMTQSPLSLPVTPGEPASISCRSSQSLLYSIGYNYLDWYLQKSGQSPQLLIYLGSNRASGVPDRFSGSGSGTDFTLKISRVEAEDVGFYYCMQALQTPYTFGQGTKLEIK
B5: Candidate-5 (TRAP-2) (other)
heavy chain with C-terminal TSLP TRAP 2 (palivizumab-YTE heavy chain, first linker, TSLP-TRAP): QVTLRESGPALVKPTQTLTLTCTFSGFSLSTSGMSVGWIRQPPGKALEWLADIWWDDKKDYNPSLKSRLTISKDTSANQVVLKVTNMDPADTATYYCARSMITNWYFDVWGAGTTVTVSSASTKGPSVFPLAPCSRSTSESTAALGCLVKDYFPEPVTVSWNSGALTSGVHTFPAVLQSSGLYSLSSVVTVPSSSLGTKTYTCNVDHKPSNTKVDKRVESKYGPPCPPCPAPEFLGGPSVFLFPPKPKDTLYITREPEVTCVVVDVSQEDPEVQFNWYVDGVEVHNAKTKPREEQFNSTYRVVSVLTVLHQDWLNGKEYKCKVSNKGLPSSIEKTISKAKGQPREPQVYTLPPSQEEMTKNQVSLTCLVKGFYPSDIAVEWESNGQPENNYKTTPPVLDSDGSFFLYSRLTVDKSRWQEGNVFSCSVMHEALHNHYTQKSLSLSLGGGGGSGGGGSGGGGSGGGGSESGYAQNGDLEDAELDDYSFSCYSQLEVNGSQHSLTCAFEDPDVNITNLEFEICGALVEVKCLNFRKLQEIYFIETKKFLLIGKSNICVKVGEKSLTCKKIDLTTIVKPEAPFDLSVVYREGANDFVVTFNTSHLQKKYVKVLMHDVAYRQEKDENKWTHVNLSSTKLTLLQRKLQPAAMYEIKVRSIPDHYFKGFWSEWSPSYYFRTPEINNSSGEMDGGSGGSGGSGGSGGSGGSGGSGGSGGSGGSGGSGGSGGSGGSGGSGGSGGSGGSGGSGGSGAAEGVQIQIIYFNLETVQVTWNASKYSRTNLTFHYRFNGDEAYDQCTNYLLQEGHTSGCLLDAEQRDDILYFSIRNGTHPVFTASRWMVYYLKPSSPKHVRFSWHQDAVTVTCSDLSYGDLLYEVQYRSPFDTEWQSKQENTCNVTIEGLDAEKCYSFWVRVKAMEDVYGPDTYPSDWSEVTCWQRGEIRDACAETPTPPKPKLSK
light chain: DIQMTQSPSTLSASVGDRVTITCKCQLSVGYMHWYQQKPGKAPKLLIYDTSKLASGVPSRFSGSGSGTAFTLTISSLQPDDFATYYCFQGSGYPFTFGGGTKLEIKRTVAAPSVFIFPPSDEQLKSGTASVVCLLNNFYPREAKVQWKVDNALQSGNSQESVTEQDSKDSTYSLSSTLTLSKADYEKHKVYACEVTHQGLSSPVTKSFNRGEC
notes: Monospecific TSLP-TRAP complex on palivizumab (human IgG4 S228P, YTE)

What was measured:
[1] = target: IL-4R on human donor PBMC (B-cells) (human, UniProt P24394 26-825); assay: cell-based or functional assay
recombinant human TSLP [2] = target: T1, recombinant human TSLP (human, UniProt Q969D9 29-159); assay: cell-based or functional assay
recombinant human TSLP [3] = target: T1, recombinant human TSLP; assay: SPR; column 'SPR (Biophysical binding): TSLP (pM)'
Method: (§1) SPR studies were carried out on a Biacore 3000 instrument with a CM5 chip at 25° C. The running buffer comprised 25 mM Hepes, pH 7.5, 150 mM NaCl, 0.5 mg/ml BSA, 0.005% P20. Antibodies were captured via protein A using approximately a 1/50 dilution of each antibody in the running buffer and a 2-minute contact time at a 10 μl/min flow rate. Protein A was immobilized on a CM5 chip via standard amine coupling chemistry in 10 mM acetate pH 4.5. Approximately 800 RU of each antibody was captured. The surfaces were regenerated via a 10 mM glycine pH 1.5 between cycles. Between assays the chip was regenerated with a 2-minute pulse of 100 mM Phosphoric acid. Prior to setting up multicycle kinetic analysis analyte concentration was determined spectrophotometrically using an extinction coefficient of 72,880 M⁻¹ cm⁻¹ for IL4R and 18450 M⁻¹ cm⁻¹ for the TSLP proteins respectively. Analyte samples were prepared by diluting stocks into running buffer to a final concentration of 500 nM for the IL-4R and 25 nM for TSLP followed by serially diluting with a 2-fold series with an association time of 2.5 minutes at a 50 μl/min flow rate. Dissociation data was collected for a period of 1600 seconds. Raw data was analyzed using the Scrubber2 (Biologic Software, AU) program using a double referencing procedure where compound signal is corrected to a blank surface and a buffer injection over the captured antibody surface. Kinetic data was analyzed by fitting to a simple 1:1 binding model. […] The candidates are further described in Table 3.

recombinant human TSLP [4] = target: T1, recombinant human TSLP; assay: SPR (Biacore 3000, CM5 chip, 25 C): complex captured via protein A, TSLP as analyte, 1:1 fit; column 'TSLP binding(pM)'
Method: as §1

| Binder | IC50, upregulation of CD23 in response to IL-4 in PBMCs [1] | IC50, TARC secretion in response to TSLP in PBMCs (recombinant human TSLP [2]) | Kd (recombinant human TSLP [3]) | Kd (recombinant human TSLP [4]) | IC50, IL-4 biological assay (CD23 upregulation in PBMCs) [1] |
| --- | --- | --- | --- | --- | --- |
| B1 | 17.1 nM | 1.7 nM | 0.0259 nM | 0.0259 nM |  |
| B2 | 12.5 nM | 4.3 nM | 0.0168 nM | 0.0168 nM |  |
| B3 |  |  |  | 0.0166 nM |  |
| B4 |  |  |  |  | 4.7 nM |
| B5 |  |  |  | 0.0013 nM |  |
